One data set relates to HGFR signaling. Nature of the data set: Western blotting of phosphorylated ERK and AKT in HT29 cells. It is filed as cell-based, human. The conditions noted are these: SU11274 with EpEX-His, FIG. 2C. As to the method: FIGS. 2A to 2K. EpEX promotes tumor progression via HGFR signaling. (FIG. 2A) WT or EpCAM knockout (KO) HCT116 and HT29 cells treated with HGF (0.5 nM) for 15 min. The phosphorylation of HGFR, AKT, and ERK was examined by Western blotting. (FIG. 2B) WT or KO HCT116 and HT29 cells were treated with HGF (0.5 nM) with 2% FBS for the indicated times. Cell growth was examined by the WST-1 assay. (FIG. 2C) Starved HCT116 cells were treated with HGFR inhibitor SU11274 (SU, 10 μM) for 1 h then treated with 50 nM of EpEX-His for 15 min. The levels of phosphorylated HGFR, EGFR, AKT, and ERK were examined by Western blotting. HCT116 and HT29 cells were treated with 50 nM EpEX and SU (10 μM). […]
Whole cell extracts were prepared with RIPA buffer (50 mM Tris-HCl pH7.4, 1% NP-40, 0.5% Sodium deoxycholate, 0.1% SDS, 150 mM NaCl, 2 mM EDTA, 50 mM NaF). Protein concentrations of the cell lysates were determined by the Bradford assay. […]
Appropriate horseradish peroxidase-associated secondary antibodies (Millipore) were applied and the membranes were incubated at room temperature (RT) for 1 h. The protein bands were subsequently visualized with chemiluminescence reagents (Millipore) and detected on a BioSpectrum 600 Imaging system (UVP). The protein level was quantified from band intensity using Gel-Pro analyzer 3.1 (Media Cybernetics).
In general terms: A western blot detects proteins with antibodies after separation by electrophoresis.

A further data set addresses T1, EpCAM and HGFR (Homo sapiens, UniProt P16422).
T1 construct: as detected by IP of endogenous proteins in HCT116 cells; endogenous in cells; host or cells: HCT116
T1 sequence (P16422 24-314): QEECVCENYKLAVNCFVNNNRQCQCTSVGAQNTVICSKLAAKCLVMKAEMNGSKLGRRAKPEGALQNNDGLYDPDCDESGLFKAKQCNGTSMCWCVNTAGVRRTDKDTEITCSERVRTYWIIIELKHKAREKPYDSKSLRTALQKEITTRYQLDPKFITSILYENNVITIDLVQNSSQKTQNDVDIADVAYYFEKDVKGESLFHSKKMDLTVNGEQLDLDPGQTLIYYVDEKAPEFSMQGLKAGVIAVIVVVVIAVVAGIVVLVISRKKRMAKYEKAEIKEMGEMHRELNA
Kind of data set: Immunoprecipitation of endogenous EpCAM and HGFR in HCT116 cells. The conditions noted are these: 6 h treatment, IP of endogenous proteins, FIG. 6E. It is filed as cell-based. On the procedure: FIGS. 6A to 6J. EpAb2-6 inhibits EpCAM and HGFR signaling and promotes active β-catenin and Snail protein degradation via activating GSK3β. (FIG. 6A) HCT116 cells were treated with 10 μg/ml control IgG (normal mouse IgG, NMIgG) or mouse EpAb2-6 (EpAb2-6) for 16 h, followed by treatment with EpEX-His (50 nM) for 15 min. Levels of phosphorylated HGFR, AKT, FAK, GSK3β, ERK, ADAM17, and presenilin 2 were examined by Western blotting. (FIG. 6B) HCT116 cells were treated with 10 μg/ml control IgG or mouse EpAb2-6 for 16 h, followed by treatment without or with HGF (0.5 nM) for 15 min. Levels of phosphorylated HGFR, AKT, and ERK were examined by Western blotting. HCT116 cells were treated with mouse EpAb2-6 (10 μg/ml) and HGF (0.5 nM). […] (FIG. 6D) Cell invasion was assessed by a Transwell assay with matrigel after 24 h. […] (FIG. 6F) EpEX-His (2 μg/ml) co-treated with 1 μg IgG or EpAb2-6 was added to HGFR-Fc-coated (1 μg/ml) ELISA plates and detected by TMB colorimetric peroxidase assay. (FIG. 6G) EMT associated protein levels were detected by Western blotting in HCT116 cells treated with NMIgG or EpAb2-6 for 24 h. (FIG. 6H) Protein expression was analyzed by Western blotting in HCT116 cells after treatment with EpAb2-6 and 2 μM GSK3β inhibitor (BIO) for 24 h. Quantification of the normalized protein expression in the bottom panel. […]

In data set [1] the test system is GSK3β, active β-catenin and Snail. Kind of data set: Western blotting of GSK3β, active β-catenin, Snail and EMT proteins in HCT116 cells. Format: cell-based, human.
In the next data set the test system is HT29-Luc cells. Kind of data set: Orthotopic animal model, HT29-Luc. The conditions noted are these: FIG. 9H, 9I.

This is an account of results in patent publication US20250269018A1, “COMBINED CANCER THERAPY WITH AN EPITHELIAL CELL ADHESION MOLECULE (EPCAM) INHIBITOR AND A HEPATOCYTE GROWTH FACTOR RECEPTOR (HGFR) INHIBITOR” (ACADEMIA SINICA, priority 2021, published 2025).

Protocol for HT29-Luc cells: (FIG. 9C) Timeline of the experiment to evaluate EpAb2-6 and/or crizotinib in the in orthotopic animal models. (FIG. 9D) NOD/SCID mice received orthotopic implantation of HCT116-Luc cells and then were treated with control IgG (normal mouse IgG, NMIgG), crizotinib, EpAb2-6, or crizotinib combined with EpAb2-6 starting at 3 days after tumor inoculation (n=5). Tumor growth was monitored by examining bioluminescence with the IVIS 200 Imaging System. (FIG. 9E) HCT116-Luc tumor cells monitored by bioluminescence quantification. […] (FIG. 9H) NOD/SCID mice were orthotopically implanted with HT29-Luc cells and then treated with control IgG, crizotinib, EpAb2-6, or crizotinib combined with EpAb2-6 starting at 3 days after tumor inoculation (n=5). Tumor growth was monitored by examining bioluminescence with an IVIS 200 Imaging System. (FIG. 9I) HT29-Luc tumor cells monitored by bioluminescence quantification.
Orthotopic tumor models were created as previously reported (Chen et al., 2020). Briefly, NSCID mice were used for orthotopic implantation of HCT116 cells previously infected with Lenti-luc virus (lentivirus containing luciferase gene). […] Tumor development was monitored by bioluminescence imaging. […] Tumor progression was monitored by quantification of bioluminescence. Mouse survival was also monitored.

Take `Cc1[nH]c(C=C2C(=O)Nc3ccc(S(=O)(=O)N(C)c4cccc(Cl)c4)cc32)c(C)c1C(=O)N1CCN(C)CC1` (stereo in doubt) [SU11274, (3Z)-N-(3-Chlorophenyl)-3-({3,5-dimethyl-4-[(4-methylpiperazin-1-yl)carbonyl]-1H-pyrrol-2-yl}methylene)-N-methyl-2-oxo-2,3-dihydro-1H-indole-5-sulfonamide]: in the data set with HGFR signaling, the “EpEX-mediated ERK and AKT phosphorylation” value was “attenuate EpEX-mediated ERK and AKT phosphorylation”.

B1: EpAb2-6: anti-EpCAM neutralizing monoclonal antibody targeting EpEX; VH SEQ ID NO: 15, VL SEQ ID NO: 16 (antibody, listed as Homo sapiens, V domains shown)
VH: VKLQESGPELKKPGETVKISCKASGYTFTDYSMHWVKQAPGKGLKWMGWINTETGEPTYADDFKGRFAFSLETSASTAYLQINNLKNEDTATYFCARTAVYWGQGTTVTVSS
VL: DIQMTQSPSSLSASLGERVSLTCRASQEISVSLSWLQQEPDGTIKRLIYATSTLDSGVPKRFSGSRSGSDYSLTISSLESEDFVDYYCLQYASYPWTFGGGTKLEIKRADAAPTVS
Consider B1, for which, in the data set with EpCAM and HGFR, the “association between EpCAM and HGFR” value was “decreased the association between EpCAM and HGFR”. The “Active β-catenin and Snail steady-state protein levels” value in data set [1] (10 μM MG132 and EpAb2-6 for 6 h, FIG. 6I) is listed as “reduced”. In addition, in data set [1] (24 h, FIG. 6H), the “activating phosphorylation of GSK3β at Y216 (active GSK3β)” value is reported as “increased activating phosphorylation of the protein at Y216” and the “suppressive phosphorylation of GSK3β at S9 (inactive GSK3β)” value is listed as “decreased suppressive phosphorylation of GSK3β at S9”. In data set [1] (24 h, vs control IgG, FIG. 6G), the “levels of E-cadherin” value is given as “increased the levels of E-cadherin”; the “levels of Snail and the active β-catenin” value is “decreasing Snail and the active β-catenin”. In the data set on HT29-Luc cells, the bioluminescence intensities result is “significantly decreased compared to the control IgG or crizotinib alone groups”.
